Measured values from US20210371503A1.

Target: monomeric (SARS-CoV-2 S ectodomain monomer) (SARS-CoV-2)
Test: ELISA, coated monomeric S ectodomain [cont'd]

Binder | EC50 [µg/mL]
MnC4t1p1_A10 (antibody, V domains shown) VH: QLQVQESGPGLVKPSETLSLTCTVSGASISSNHYFWGWIRQPPGKGLAWIGSMHYSGSTYYNPSLKSRVTISVDTSKNQLSLKLSSVTAADTAVYYCARGVNYYDRNGYYRNDGFDIRGQGTMVTVSS VL: DIQMTQSPSSLSASVGDRVTITCRASQGIRNDLGWYEQKPGKAPKRLIYAASSLESGVPSRFSGSGSGTEFTLTISSLQPEDFATYYCLQHNTYPFTFGPGTRVDIK | < 100
MnC4t2p1_F5 (antibody, V domains shown) VH: QLQVQESGPGLVKPSETLSLTCTVSGASISSNHYFWGWIRQPPGKGLAWIGSMHYSGSTYYNPSLKSRVTISVDTSKNQLSLKLSSVTAADTAVYYCARGVNYYDRNGYYRNDGFDIRGQGTMVTVSS VL: DIQMTQSPSSLSASVGDRVTITCRASQGIRNDLGWYEQKPGKAPKRLIYAASSLESGVPSRFSGSGSGTEFTLTISSLQPEDFATYYCLQHNTYPFTFGPGTRVDIK | < 100
MnC4t2p1_D10 (antibody, V domains shown) VH: QLQVQESGPGLVKPSETLSLTCTVSGASISSNHYFWGWIRQPPGKGLAWIGSMHYSGSTYYNPSLKSRVTISVDTSKNQLSLKLSSVTAADTAVYYCARGVNYYDRNGYYRNDGFDIRGQGTMVTVSS VL: DIQMTQSPSSLSASVGDRVTITCRASQGIRNDLGWYEQKPGKAPKRLIYAASSLESGVPSRFSGSGSGTEFTLTISSLQPEDFATYYCLQHNTYPFTFGPGTRVDIK | < 100
